Columns and labels:
[1] = biological target: platelet Fc-gamma RIIA (human) (UniProt P12318); assay: cell-based or functional assay
hPF4/heparin complex [2] = biological target: T1, hPF4/heparin complex (human, UniProt P02776 32-101); assay: ELISA, wells coated with hPF4/heparin or hPF4 alone
T1 construct: hPF4 (10 micrograms per milliliter) complexed with heparin (0.2 Units/milliliter in the standard ELISA); heparin is a glycosaminoglycan and not a protein chain; also called P/H
T1 sequence (looked up): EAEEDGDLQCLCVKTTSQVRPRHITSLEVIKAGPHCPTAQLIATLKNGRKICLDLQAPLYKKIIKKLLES
Procedure: (§1) The binding of antibody to either PF4, PF4 variants, PF4 bound to various GAGs or other chemokines complexed to heparin, was measured using an ELISA-based method as previously described (Arepally et al., 1995, Am. J. Clin. Pathol. 104:648). Briefly, to screen hybridoma culture supematants, 96-well microtiter plates were coated overnight at room temperature with 50 micoliters per well of phosphate buffered saline (PBS) containing PF4 (final concentration 10 micrograms per milliliter) in the presence or absence of heparin (0.2 Units/milliliter). The plates were then washed three times with TBS/0.01% Tween-20, blocked with 10% fetal calf serum (FCS) (200 microliters per well) in PBS for 2 hours at room temperature, and washed once more. Culture supernatant was added (50 microliters per well) for 1 hour at room temperature. Non-bound antibody was removed by washing, and 50 microliters per well of alkaline-phosphatase conjugated goat anti-mouse IgG, diluted 1:1000 in 10% FCS/PBS was added for 1 hour at room temperature. […] The binding of KKO to PF4 and related chemokines and the binding of KKO to PF4 bound to various GAGs, was measured in the same manner, except that an incubation volume of 100 microliters per well was used.

[3] = biological target: T2, hNAP-2 complexed to heparin (human, UniProt P02775 59-128); assay: ELISA, chemokine complexed to heparin
T2 construct: mature; Complexed to heparin in the ELISA; NAP-2 is its C-terminal product
T2 sequence (looked up): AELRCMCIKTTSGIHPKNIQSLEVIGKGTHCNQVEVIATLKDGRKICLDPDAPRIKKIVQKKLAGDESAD
Procedure: as §1

[4] = biological target: T3, hIL-8 complexed to heparin (human, UniProt P10145 21-99); assay: ELISA, chemokine complexed to heparin
T3 construct: mature; Complexed to heparin in the ELISA
T3 sequence (looked up): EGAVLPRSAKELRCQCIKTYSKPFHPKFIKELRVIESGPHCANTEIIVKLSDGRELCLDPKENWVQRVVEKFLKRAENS
Procedure: as §1

[5] = biological target: T4, murine PF4 complexed to heparin (murine, UniProt Q9Z126 30-105); assay: ELISA, mPF4 complexed to heparin
T4 construct: mature; Complexed to heparin in the ELISA; also called mPF4; mouse PF4
T4 sequence (looked up): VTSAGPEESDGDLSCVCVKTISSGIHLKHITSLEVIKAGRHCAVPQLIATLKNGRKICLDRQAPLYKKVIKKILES
Procedure: as §1

hPF4/heparin complex [6] = biological target: T1, hPF4/heparin complex; assay: ELISA, wells coated with hPF4/heparin
Procedure: as §1, with “temperature.” for “temperature. Non-bound antibody was removed by washing, and 50 microliters per well of alkaline-phosphatase conjugated goat anti-mouse IgG, diluted 1:1000 in 10% FCS/PBS was added for 1 hour at room temperature.”
(§2) The relative specificity of KKO was determined by adding various dilutions of KKO to wells coated with hPF4/heparin complex or hPF4 alone. […] At concentrations less than 0.14 micrograms per milliliter, the ratio of binding of KKO to PF4/heparin complex vs. binding to PF4 alone as determined by A₄₀₅ was greater than 400. […]

hPF4/heparin complex [7] = biological target: T1, hPF4/heparin complex; assay: ELISA, KKO at concentrations less than 0.14 micrograms per milliliter
Procedure: as §1, with “temperature.” for “temperature. Non-bound antibody was removed by washing, and 50 microliters per well of alkaline-phosphatase conjugated goat anti-mouse IgG, diluted 1:1000 in 10% FCS/PBS was added for 1 hour at room temperature.”
as §2

platelet Fc-gamma RIIA (human), sequence (P12318 34-317, form in doubt): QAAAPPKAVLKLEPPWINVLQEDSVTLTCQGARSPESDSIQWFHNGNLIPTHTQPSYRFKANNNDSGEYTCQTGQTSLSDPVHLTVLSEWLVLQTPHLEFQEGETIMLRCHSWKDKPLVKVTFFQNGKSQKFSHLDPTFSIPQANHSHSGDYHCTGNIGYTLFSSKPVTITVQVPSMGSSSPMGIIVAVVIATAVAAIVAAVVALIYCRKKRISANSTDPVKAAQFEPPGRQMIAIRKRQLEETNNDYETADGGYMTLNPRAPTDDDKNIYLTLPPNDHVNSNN

Molecule: Fc-gamma RIIA blocking antibody mAb IV.3
- 14C-serotonin release induced by KKO [1]: < 5 % release

B1: murine monoclonal antibody KKO (antibody, V domains shown)
VH: EVQLQQSGAELVKPGASVKLSCKASGYTFTNYFIYWVKQRPGQGLEWIGEINPRNGDTDFNEKFESRATLTVDKSSSTAYMQLSSLTSEDSAIYYCTRSPYGNNYGFTYWGQGTLVTVSA
VL: DIQMIQSQKFMSTSVGDRVTVTCKASQNVGTNVAWYQQKPGQSPNALIYSASYRYSGVPDRFTGSGSGTDFTLTITNVQSEDLADYFCQQYNSYPLTFGTGTKLEIK
notes: Murine IgG2b kappa purified from ascites
- A405 ratio to hPF4/heparin complex versus hPF4 alone (hPF4/heparin complex [2]): > 30 ratio
- binding result [3]: no binding
- binding result [4]: no binding
- binding result [5]: no binding
- EC50 (hPF4/heparin complex [6]): 0.036 µg/mL
- ratio of binding to PF4/heparin complex vs. binding to PF4 alone (A405) (hPF4/heparin complex [7]): > 400 ratio

— patent US20060040323A1 (SCIENCE AND TECHNOLOGY CORPORATION UNM, published 2006)
